What was measured:
Assay type in all cases: binding
[1] = Probe fluorescence ratio response to arachidonate:BSA complex, relative to ADIFAB2 (ΔR/ΔRAD2); conditions: for DR/DR AA: arachidonate (AA), response relative to ADIFAB2; for ΔR/ΔRAD2 AA: fluorescence response (R-Ro) relative to ADIFAB2, arachidonate
Protocol: (§1) The intensity ratio (“R” value) for a given probe is determined. The ratio is calculated using the following formula: R=Fλ1/Fλ2 wherein, Fλ1, is the measured fluorescence intensities (intensity of sample with probe present minus intensity of sample without probe present) at wavelength 1 and Fλ2 is the measured fluorescence intensities (intensity of sample with probe present minus intensity of sample without probe present) at wavelength 2. Then, for a given probe, ΔR, the difference in R value between the measurement in the presence of the analyte and in the absence of the analyte, is calculated as follows: ΔR=R+analyte−R0 The ΔR value for a given probe is then compared to a reference probe, for example, ADIFAB or ADIFAB2, by ΔR/ΔRreference. This value is an indication of how dissimilar the new probe (derived by mutation of the template) is to the reference. By this method, probes with new and useful characteristics may be identified. Measurements of fluorescence intensities are obtained using standard techniques.
(§2) Mutant probes were screened in 96-well plates by fluorescence response to five fatty acids: arachidonate, linolenate, linoleate, oleate, and palmitate. Each fatty acid was prepared as a complex with BSA by slow addition of 50 mM stocks of fatty acid sodium salts at pH 11 to 600 μM BSA in HEPES buffer. During the formation of complexes, 15 μL aliquots were periodically measured with the reference probe, ADIFAB2, to determine the ΔR value upon excitation at 375 nm and fluorescence emission at 550 and 457 nm using a Fluorolog-3 spectrofluorometer (Jobin Yvon) (Richieri et al, Molecular and Cellular Biochemistry (1999), 192:87-94 & Richieri et al, J. Biol. Chem. (1996), 271:31068-31074). Complexes were prepared such that the final ΔR was approximately 0.4 which correspond to [FFAu] ranging from 100 to 1000 nM depending on FFA type. These complexes buffer or clamp the FFAu levels at fixed values and therefore ensure the accurate comparison of different probes with the same FFAu concentrations. In contrast, addition of FFAu alone (i.e. uncomplexed FFA) introduces considerable uncertainty in comparing different probes because the FFAu level will be affected by binding to the dispensing device, the walls of the multi-well plates and to the probe itself. Thus, the terms “buffer” and “clamp” as used in this particular context herein are taken to mean the ability of a carrier macromolecule to complex with an unbound metabolite so that the unbound metabolite is presented accurately for measurement purposes and is prevented from non-specific binding such as binding to laboratory apparatus.
(§3) Plates were prepared and read in two stages. First, complexes and fatty acid free BSA were diluted to 6 μM BSA in HEPES and added to the 96-well plate at 300 μL per well. A MultiProbe II HT (Perkin Elmer) (an automated liquid handling system) was used to facilitate plate preparation for high throughput screening, but any automated or manual pipetting system will suffice. The background fluorescence was then measured at the same wavelengths as used for ADIFAB2 using a Fluorolog-3 spectrofluorometer with an external Micromax 384 fluorescence plate reader (Jobin Yvon). In the second stage, 30 μL aliquots of the mutant probes were added to multiple wells of the plate, one for each fatty acid and one with fatty acid free BSA only, and the fluorescence intensity at each wavelength was again measured on the plate reader. After subtraction of the background fluorescence, the fluorescence ratio of each well was calculated.
(§4) The fluorescence response was quantitatively compared to ADIFAB2 to search for changes in magnitude and fatty acid profile; for example the response to one fatty acid relative to another. For each probe the ratio differences (AR) between wells with each fatty acid compared to a corresponding well with fatty acid free BSA were recorded. […]

[2] = Probe fluorescence ratio response to linolenate:BSA complex, relative to ADIFAB2 (ΔR/ΔRAD2); conditions: for DR/DR LNA: linolenate (LNA), response relative to ADIFAB2; for ΔR/ΔRAD2 LNA: fluorescence response (R-Ro) relative to ADIFAB2, linolenate
Protocol: as §1, §2, §3, §4

[3] = Probe fluorescence ratio response to linoleate:BSA complex, relative to ADIFAB2 (ΔR/ΔRAD2); conditions: for DR/DR LA: linoleate (LA), response relative to ADIFAB2; for ΔR/ΔRAD2 LA: fluorescence response (R-Ro) relative to ADIFAB2, linoleate
Protocol: as §1, §2, §3, §4

[4] = Probe fluorescence ratio response to oleate:BSA complex, relative to ADIFAB2 (ΔR/ΔRAD2); conditions: for DR/DR OA: oleate (OA), response relative to ADIFAB2; for ΔR/ΔRAD2 OA: fluorescence response (R-Ro) relative to ADIFAB2, oleate
Protocol: as §1, §2, §3, §4

[5] = Probe fluorescence ratio response to palmitate:BSA complex, relative to ADIFAB2 (ΔR/ΔRAD2); conditions: for DR/DR PA: palmitate (PA), response relative to ADIFAB2; for ΔR/ΔRAD2 PA: fluorescence response (R-Ro) relative to ADIFAB2, palmitate
Protocol: as §1, §2, §3, §4

B1: 14Y, 72A wt (protein, UniProt P02693 2-132, looked up, variant L72A)
Fatty acid-binding protein, …: AFDGTWKVDRNENYEKFMEKMGINVVKRKLGAHDNLKLTITQEGNKFTVKESSNFRNIDVVFELGVDFAYSAADGTELTGTWTMEGNKLVGKFKRVDNGKELIAVREISGNELIQTYTYEGVEAKRIFKKE
modifications: acrylodan label
- DR/DR AA [1]: 1.29
- DR/DR LNA [2]: 1.29
- DR/DR LA [3]: 1.23
- DR/DR OA [4]: 2.22
- DR/DR PA [5]: 1.07

B2: 47M2, L72A (protein, UniProt P02693 2-132, looked up, variant F47M L72A)
Fatty acid-binding protein, …: AFDGTWKVDRNENYEKFMEKMGINVVKRKLGAHDNLKLTITQEGNKMTVKESSNFRNIDVVFELGVDFAYSAADGTELTGTWTMEGNKLVGKFKRVDNGKELIAVREISGNELIQTYTYEGVEAKRIFKKE
modifications: acrylodan label
- DR/DR AA [1]: 1.00
- DR/DR LNA [2]: 0.97
- DR/DR LA [3]: 0.99
- DR/DR OA [4]: 0.95
- DR/DR PA [5]: 0.83

B3: 40F2, L72A (protein, UniProt P02693 2-132, looked up, variant I40F L72A)
Fatty acid-binding protein, …: AFDGTWKVDRNENYEKFMEKMGINVVKRKLGAHDNLKLTFTQEGNKFTVKESSNFRNIDVVFELGVDFAYSAADGTELTGTWTMEGNKLVGKFKRVDNGKELIAVREISGNELIQTYTYEGVEAKRIFKKE
modifications: acrylodan label
- DR/DR AA [1]: 0.89
- DR/DR LNA [2]: 0.99
- DR/DR LA [3]: 0.90
- DR/DR OA [4]: 0.90
- DR/DR PA [5]: 0.80

B4: W82F, L72A: acrylodan-labeled rI-FABP mutein W82F, L72A (protein)
chain: AFDGTWKVDRNENYEKFMEKMGINVVKRKLGAHDNLKLTITQEGNKFTVKESSNFRNIDVVFELGVDFAYSAADGTELTGTFTMEGNKLVGKFKRVDNGKELIAVREISGNELIQTYTYEGVEAKRIFKKE
- ΔR/ΔRAD2 AA [1]: 0.68
- ΔR/ΔRAD2 LNA [2]: 0.76
- ΔR/ΔRAD2 LA [3]: 1.08
- ΔR/ΔRAD2 OA [4]: 0.78
- ΔR/ΔRAD2 PA [5]: 0.41

B5: 47T1, L72A (protein, UniProt P02693 2-132, looked up, variant F47T L72A)
Fatty acid-binding protein, …: AFDGTWKVDRNENYEKFMEKMGINVVKRKLGAHDNLKLTITQEGNKTTVKESSNFRNIDVVFELGVDFAYSAADGTELTGTWTMEGNKLVGKFKRVDNGKELIAVREISGNELIQTYTYEGVEAKRIFKKE
modifications: acrylodan label
- DR/DR AA [1]: 0.68
- DR/DR LNA [2]: 0.74
- DR/DR LA [3]: 0.77
- DR/DR OA [4]: 0.74
- DR/DR PA [5]: 0.46

B6: L78F, L72A: acrylodan-labeled rI-FABP mutein L78F, L72A (protein)
chain: AFDGTWKVDRNENYEKFMEKMGINVVKRKLGAHDNLKLTITQEGNKFTVKESSNFRNIDVVFELGVDFAYSAADGTEFTGTWTMEGNKLVGKFKRVDNGKELIAVREISGNELIQTYTYEGVEAKRIFKKE
- ΔR/ΔRAD2 AA [1]: 2.04
- ΔR/ΔRAD2 LNA [2]: 2.05
- ΔR/ΔRAD2 LA [3]: 2
- ΔR/ΔRAD2 OA [4]: 1.83
- ΔR/ΔRAD2 PA [5]: 0.91

B7: 47S1, L72A (protein, UniProt P02693 2-132, looked up, variant F47S L72A)
Fatty acid-binding protein, …: AFDGTWKVDRNENYEKFMEKMGINVVKRKLGAHDNLKLTITQEGNKSTVKESSNFRNIDVVFELGVDFAYSAADGTELTGTWTMEGNKLVGKFKRVDNGKELIAVREISGNELIQTYTYEGVEAKRIFKKE
modifications: acrylodan label
- DR/DR AA [1]: 0.61
- DR/DR LNA [2]: 0.69
- DR/DR LA [3]: 0.66
- DR/DR OA [4]: 0.64
- DR/DR PA [5]: 0.34

B8: R106W, L72A: acrylodan-labeled rI-FABP mutein R106W, L72A (protein)
chain: AFDGTWKVDRNENYEKFMEKMGINVVKRKLGAHDNLKLTITQEGNKFTVKESSNFRNIDVVFELGVDFAYSAADGTELTGTWTMEGNKLVGKFKRVDNGKELIAVWEISGNELIQTYTYEGVEAKRIFKKE
- ΔR/ΔRAD2 AA [1]: 1.11
- ΔR/ΔRAD2 LNA [2]: 1.03
- ΔR/ΔRAD2 LA [3]: 1.04
- ΔR/ΔRAD2 OA [4]: 0.99
- ΔR/ΔRAD2 PA [5]: 0.41

B9: 47H1, L72A (protein, UniProt P02693 2-132, looked up, variant F47H L72A)
Fatty acid-binding protein, …: AFDGTWKVDRNENYEKFMEKMGINVVKRKLGAHDNLKLTITQEGNKHTVKESSNFRNIDVVFELGVDFAYSAADGTELTGTWTMEGNKLVGKFKRVDNGKELIAVREISGNELIQTYTYEGVEAKRIFKKE
modifications: acrylodan label
- DR/DR AA [1]: 0.63
- DR/DR LNA [2]: 0.70
- DR/DR LA [3]: 0.74
- DR/DR OA [4]: 0.67
- DR/DR PA [5]: 0.43

B10: 40V1, L72A (protein, UniProt P02693 2-132, looked up, variant I40V L72A)
Fatty acid-binding protein, …: AFDGTWKVDRNENYEKFMEKMGINVVKRKLGAHDNLKLTVTQEGNKFTVKESSNFRNIDVVFELGVDFAYSAADGTELTGTWTMEGNKLVGKFKRVDNGKELIAVREISGNELIQTYTYEGVEAKRIFKKE
modifications: acrylodan label
- DR/DR AA [1]: 1.20
- DR/DR LNA [2]: 1.28
- DR/DR LA [3]: 1.24
- DR/DR OA [4]: 1.21
- DR/DR PA [5]: 0.91

B11: D74F, L72A: acrylodan-labeled rI-FABP mutein D74F, L72A (protein)
chain: AFDGTWKVDRNENYEKFMEKMGINVVKRKLGAHDNLKLTITQEGNKFTVKESSNFRNIDVVFELGVDFAYSAAFGTELTGTWTMEGNKLVGKFKRVDNGKELIAVREISGNELIQTYTYEGVEAKRIFKKE
- ΔR/ΔRAD2 AA [1]: 0.44
- ΔR/ΔRAD2 LNA [2]: 1.04
- ΔR/ΔRAD2 LA [3]: 0.67
- ΔR/ΔRAD2 OA [4]: 0.51
- ΔR/ΔRAD2 PA [5]: 0.93

B12: 47G1, L72A (protein, UniProt P02693 2-132, looked up, variant F47G L72A)
Fatty acid-binding protein, …: AFDGTWKVDRNENYEKFMEKMGINVVKRKLGAHDNLKLTITQEGNKGTVKESSNFRNIDVVFELGVDFAYSAADGTELTGTWTMEGNKLVGKFKRVDNGKELIAVREISGNELIQTYTYEGVEAKRIFKKE
modifications: acrylodan label
- DR/DR AA [1]: 0.51
- DR/DR LNA [2]: 0.63
- DR/DR LA [3]: 0.66
- DR/DR OA [4]: 0.59
- DR/DR PA [5]: 0.32

B13: 47C3, L72A (protein, UniProt P02693 2-132, looked up, variant F47C L72A)
Fatty acid-binding protein, …: AFDGTWKVDRNENYEKFMEKMGINVVKRKLGAHDNLKLTITQEGNKCTVKESSNFRNIDVVFELGVDFAYSAADGTELTGTWTMEGNKLVGKFKRVDNGKELIAVREISGNELIQTYTYEGVEAKRIFKKE
modifications: acrylodan label
- DR/DR AA [1]: 0.32
- DR/DR LNA [2]: 0.35
- DR/DR LA [3]: 0.37
- DR/DR OA [4]: 0.35
- DR/DR PA [5]: 0.23

Reference: US20050244864A1, “Development and use of fluorescent probes of unbound analytes” (priority 2004, published 2005)
